The text below walks through data of patent US9663581.

This assay concerns the target FcγRIIIa on NK cells (human) (UniProt P08637). The assay can be described thus: cell-based or functional assay.
Sequence of UniProt P08637 (P08637 17-254): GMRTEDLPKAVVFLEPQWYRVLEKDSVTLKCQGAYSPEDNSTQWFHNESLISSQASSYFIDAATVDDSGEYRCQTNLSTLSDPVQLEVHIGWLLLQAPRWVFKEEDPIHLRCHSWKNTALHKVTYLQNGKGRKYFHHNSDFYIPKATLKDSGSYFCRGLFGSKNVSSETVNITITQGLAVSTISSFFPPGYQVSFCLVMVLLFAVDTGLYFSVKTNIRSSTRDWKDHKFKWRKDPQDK

wild type rituximab (antibody): the ADCC EC50 (LDH release, Raji target cells, human PBMC effector cells) was found to be 0.046 µg/mL.
